{
  "source": "patent US8926966B1",
  "about": "(Regents of the University of California, priority 1990, dated 2015)",
  "molecules": {"B1": {"name": "Segment C: human GAD65 amino acid residues 398-585, in vitro translated, ^35S labeled (protein)", "chain": "MMGVPLQCSALLVREEGLMQNCNQMHASYLFQQDKHYDLSYDTGDKALQCGRHVDVFKLWLMWRAKGTTGFEAHVDKCLELAEYLYNIIKNREGYEMVFDGKPQHTNVCFWYIPPSLRTLEDNEERMSRLSKVAPVIKARMMEYGTTMVSYQPLGDKVNFFRMVISNPAATHQDIDFLIEEIERLGQDL"}, "B2": {"name": "GAD65: rat GAD65 expressed in bacteria, ^35S-labeled, in bacterial lysate (protein, UniProt Q05683 1-585, looked up)", "Glutamate decarboxylase 2": "MASPGSGFWSFGSEDGSGDPENPGTARAWCQVAQKFTGGIGNKLCALLYGDSEKPAESGGSVTSRAATRKVACTCDQKPCSCPKGDVNYALLHATDLLPACEGERPTLAFLQDVMNILLQYVVKSFDRSTKVIDFHYPNELLQEYNWELADQPQNLEEILTHCQTTLKYAIKTGHPRYFNQLSTGLDMVGLAADWLTSTANTNMFTYEIAPVFVLLEYVTLKKMREIIGWPGGSGDGIFSPGGAISNMYAMLIARYKMFPEVKEKGMAAVPRLIAFTSEHSHFSLKKGAAALGIGTDSVILIKCDERGKMIPSDLERRILEVKQKGFVPFLVSATAGTTVYGAFDPLLAVADICKKYKIWMHVDAAWGGGLLMSRKHKWKLNGVERANSVTWNPHKMMGVPLQCSALLVREEGLMQSCNQMHASYLFQQDKHYDLSYDTGDKALQCGRHVDVFKLWLMWRAKGTTGFEAHIDKCLELAEYLYNIIKNREGYEMVFDGKPQHTNVCFWFVPPSLRVLEDNEERMSRLSKVAPVIKARMMEYGTTMVSYQPLGDKVNFFRMVISNPAATHQDIDFLIEEIERLGQDL", "modifications": "35S-labeled", "notes": "rat GAD65 expressed in bacteria, ^35S-labeled, in bacterial lysate"}, "B3": {"name": "Segment A: human GAD65 amino acid residues 1-224, in vitro translated, ^35S labeled (protein)", "chain": "MASPGSGFWSFGSEDGSGDSENPGTARAWCQVAQKFTGGIGNKLCALLYGDAEKPAESGGSQPPRAAARKAACACDQKPCSCSKVDVNYAFLHATDLLPACDGERPTLAFLQDVMNILLQYVVKSFDRSTKVIDFHYPNELLQEYNWELADQPQNLEEILMHCQTTLKYAIKTGHPRYFNQLSTGLDMVGLAADWLTSTANTNMFTYEIAPVFVLLEYVTLKKM"}},
  "key": {"[1]": {"tested_on": "islet infiltrating T lymphocytes (IITLs)", "experiment": "^3H-thymidine incorporation, islet infiltrating T lymphocytes", "type": "cell-based"}, "splenic lymphocytes": {"tested_on": "splenic lymphocytes", "experiment": "^3H-thymidine incorporation, splenic lymphocytes", "type": "cell-based"}, "NOD mice [2]": {"tested_on": "NOD mice", "experiment": "Insulitis score after tolerization of NOD mice", "type": "in vivo, mouse", "conditions": "examined at 12 weeks"}, "NOD mice [3]": {"tested_on": "NOD mice", "method": "1. […] At 12 weeks of age, mice were examined for insulitis and autoantigen reactive T-cells. […] Pancreatic tissue sections were stained by immunoperoxidase techniques for insulin and were counterstained with hematoxylin. Insulitis was scored in a blinded manner by examining 54 to 87 islets on 5 interrupted tissue sections from each pancreas. Proliferative splenic T-cell responses induced by various antigens were performed as described above in Example 4. Data in Table 8 are expressed as the average [^3H]-thymidine label (cpm) incorporated in triplicate cultures."}, "[4]": {"tested_on": "spleen cells of NOD, BALB/c and (NOD/BALB/c) F1 mice", "conditions": "<4 or >16 week old NOD or control BALB/c or (NOD/BALB/c) F1 spleen cells", "method": "Incorporation of label was measured by liquid scintillation counting."}, "NOD mice [5]": {"tested_on": "NOD mice", "experiment": "GAD immunization of 8 week old NOD mice, IDDM onset", "type": "in vivo, mouse", "description": "Breeder mice were purchased from Taconic Farms and housed under specific pathogen-free conditions. Only female NOD mice were used in this study. […] Insulitis is generally observed beginning at 4 weeks of age. […] The incidence of IDDM in female mice is 70-90% by one year of age.\nUrine glucose levels were monitored twice weekly. After observing above normal glucose in urea, blood glucose levels were monitored twice weekly."}, "[6]": {"tested_on": "IDDM autoantibodies in sera of human patients", "experiment": "Autoantibody reactivity with ^35S labeled GAD65 segments (immunoprecipitation, SDS-PAGE)", "type": "binding", "conditions": "IDDM patient sera of Table 10", "description": "Portions of human GAD65 cDNA were amplified by the polymerase chain reaction (PCR; Saiki, et al., Science, 239:487, 1988) to produce DNA segments encoding three polypeptide segments: amino acid residues 1-224 (segment A); 224-398 (segment B); and 398-585 (segment C). Each construct also contained a T7 promoter, a consensus sequence for the initiation of translation and an initiating methionine codon (Korak, M., J. Cell Biol., 108:229, 1989). Each PCR product was then trascribed in vitro with T7 RNA polymerase and translated in vitro in a rabbit reticulocyte cell-free system in the presence of ^35S-methionine, using conditions recommended by the supplier (Amersham Corp., Arlington Heights, Ill.). Each test serum (30 μl) was incubated with the resulting ^35S labeled-polypeptides. The bound peptides were isolated with PAS and analyzed by SDS-PAGE in 12% polyaacrylamide and autoradiography."}, "[7]": {"tested_on": "autoantibodies to GAD in patient sera", "experiment": "Immunoprecipitation of ^35S-GAD65 / ^35S-GAD67 by sera drawn prior to IDDM onset", "type": "binding, human", "design": "key to band intensity of immunoprecipitated ^35S-GAD: 1 = lowest; 2 = medium; 3 = highest band intensities", "method": "(§1) Islet cells were extracted as previously described by Atkinson, et al. (Lancet, 335:1357-1360, 1990) with the following modifications. […] The protein A Sepharose CL-4B was then boiled in Laemmli sample buffer (Laemmli, Nature, 227:680-685, 1970), and the samples were subjected to SDS-PAGE and fluororadiography (Kodak, X-omat AR5) using Enhance (New England Nuclear). Alternatively, the autoradiographs were analyzed by a BETAGEN (Boston, Mass.) analyzer. Both 64KA positive and negative sera were used in each assay, to serve as interassay controls. All fluororadiographs were analyzed and rated as positive or negative after comparison with the known interassay controls. […] A similar rating procedure was employed for the intensity of bands corresponding to immunoprecipitated ^35S-GAD65 and ^35S-GAD67.\nRat GAD65 and GAD67 cDNAs were subcloned into a bacterial expression system as previously described. Labeling of ^35S-GADs was completed by pulsing IPTG induced bacterium (growing in Minimal Media) for 15 minutes with TRAN ^35S-label (ICN). Cultures were then spun down and resuspended and sonicated in 1 ml of homogenizing buffer (1 mM phenylmethylsulfonyl fluoride (PMSF), 1 mM 2-aminoethylisothiouronium Bromide (AET) and 60 mM potassium phosphate, pH 7.1). After sonication, cell debris was removed by centrifugation and protein concentration was measured (Bradford, Anal. Biochem., 72:248, […]) in the supernatant (supernatant was stored in aliquots at −70° C.)."}, "[8]": {"tested_on": "autoantibodies to the 64 kD autoantigen", "experiment": "Prior absorption of IDDM serum, recognition of 64 kD pancreatic polypeptide", "type": "binding", "conditions": "human pancreatic islet cell lysate", "method": "as §1\nPrior absorption of these sera with GAD-6 monoclonal, which recognized GAD65 but not GAD67, or with bacterially produced GAD65, abolished the ability of the sera to recognize the 64 kD pancreatic polypeptide. […] In order to investigate the predictive value of GAD65, sera drawn from patients prior to onset of clinical manifestation of IDDM were tested for autoantibodies to GAD65."}},
  "note": "Where two headings read alike, the source gives them in different places.",
  "data": [
    {"molecule": "ARFKMFPEVKEKGMAA [GAD65 (SEQ ID NO. 5)]", "values": [
      {"measurement": "^3H-THYMIDINE INCORPORATION (cpm) BY LYMPHOID CELL POPULATION IITLs", "setting": "[1]; 3 × 10^4 cells/well, 5 days culture with irradiated spleen cells", "result": "9,500 cpm"},
      {"measurement": "IITL proliferative response relative to culture media or polio polypeptide", "setting": "[1]; IITL population", "result": 9, "unit": "fold"},
      {"measurement": "^3H-THYMIDINE INCORPORATION (cpm) BY LYMPHOID CELL POPULATION SPLEEN", "setting": "splenic lymphocytes; 1 × 10^5 cells/well, 5 days culture", "result": "23,300 cpm"}
    ]},
    {"molecule": "MKSMCPQAQLKVKYL [Poliovirus (SEQ ID NO. 4), reference compound]", "values": [
      {"measurement": "^3H-THYMIDINE INCORPORATION (cpm) BY LYMPHOID CELL POPULATION IITLs", "setting": "[1]", "result": 900, "unit": "cpm"},
      {"measurement": "^3H-THYMIDINE INCORPORATION (cpm) BY LYMPHOID CELL […]", "setting": "splenic lymphocytes", "result": "22,500 cpm"}
    ]},
    {"molecule": "glutamic acid decarboxylase [GAD]", "values": [
      {"measurement": "insulitis score of the completely tolerized mice", "setting": "NOD mice [2]; NOD mice, 50 μg i.v. at 3 weeks", "result": 0.0},
      {"measurement": "Insultis Score", "setting": "NOD mice [2]; Table 8A: female NOD mice, i.v. at 3 weeks of age, 50 μg (hsp-p 0.1 μg) in PBS, scale 0-4, mean ± SE", "result": "0.1 ± 0.1"},
      {"measurement": "glucose levels of treated mice", "setting": "NOD mice [3]; all treated mice, n=17, presently 37 weeks old", "result": "normal glucose levels"},
      {"measurement": "insulitis at 30 weeks of age", "setting": "NOD mice [3]; five treated mice sacrificed at 30 weeks, one had very limited peri-insulitis", "result": "four mice were completely free of insulitis"},
      {"measurement": "T cell proliferation", "setting": "[4]", "result": "did not induce T cell proliferation"},
      {"measurement": "significance of delay of diabetes versus β-gal immunized mice", "setting": "NOD mice [5]; 25 ug i.p. in IFA at 8 weeks, again every 6 weeks", "result": "< 0.02"},
      {"measurement": "onset of IDDM compared to control β-gal immunized mice", "setting": "NOD mice [5]; FIG. 11", "result": "clear delay in the onset of IDDM"},
      {"measurement": "immunized mice with no signs of hyperglycemia until 36 weeks in age", "setting": "NOD mice [5]; of 10 mice, 25 ug i.p. in IFA at 8 weeks, again every 6 weeks", "result": 8}
    ]},
    {"molecule": "B1", "values": [
      {"measurement": "patients with antibodies reactive with the segment", "setting": "[6]", "result": 27, "unit": "%"}
    ]},
    {"molecule": "B2", "values": [
      {"measurement": "specimens immunoreactive", "setting": "[7]; 9 out of 12 sera drawn prior to IDDM onset", "result": 75, "unit": "%"},
      {"measurement": "band intensity of immunoprecipitated ^35S-GAD", "setting": "[7]; serum of patient eight, drawn 8 months before IDDM onset", "result": 0},
      {"measurement": "band intensity of immunoprecipitated ^35S-GAD", "setting": "[7]; serum of patient eleven, drawn 10 months before IDDM onset", "result": 1},
      {"measurement": "band intensity of immunoprecipitated ^35S-GAD", "setting": "[7]; serum of patient five, drawn 34 months before IDDM onset", "result": 1},
      {"measurement": "band intensity of immunoprecipitated ^35S-GAD", "setting": "[7]; serum of patient nine, drawn 42 months before IDDM onset", "result": 1},
      {"measurement": "band intensity of immunoprecipitated ^35S-GAD", "setting": "[7]; serum of patient one, drawn 9 months before IDDM onset", "result": 1},
      {"measurement": "band intensity of immunoprecipitated ^35S-GAD", "setting": "[7]; serum of patient seven, drawn 3 months before IDDM onset", "result": 0},
      {"measurement": "band intensity of immunoprecipitated ^35S-GAD", "setting": "[7]; serum of patient six, drawn 11 months before IDDM onset", "result": 0},
      {"measurement": "band intensity of immunoprecipitated ^35S-GAD", "setting": "[7]; serum of patient ten, drawn 25 months before IDDM onset", "result": 1},
      {"measurement": "band intensity of immunoprecipitated ^35S-GAD", "setting": "[7]; serum of patient three, drawn 14 months before IDDM onset", "result": 2},
      {"measurement": "band intensity of immunoprecipitated ^35S-GAD", "setting": "[7]; serum of patient twelve, drawn 4 months before IDDM onset", "result": 1},
      {"measurement": "band intensity of immunoprecipitated ^35S-GAD", "setting": "[7]; serum of patient two, drawn 6 months before IDDM onset", "result": 3},
      {"measurement": "band intensity of immunoprecipitated ^35S-GAD", "setting": "[7]; serum of patient, drawn 66 months before IDDM onset", "result": 1},
      {"measurement": "ability of patient four sera to recognize the 64 kD pancreatic polypeptide after prior absorption", "setting": "[8]", "result": "abolished"}
    ]},
    {"molecule": "B3", "values": [
      {"measurement": "patients with antibodies reactive with the segment", "setting": "[6]", "result": "none"}
    ]}
  ]
}
